In the nanobody polyreactivity screen of Harvey et al. (2022):

Assay: yeast display, Sf9 membrane polyspecificity reagent, FACS + sequencing; frameworks hold sequencing errors
How it was run: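 Nanobodies came from a synthetic yeast display library in Saccharomyces cerevisiae BJ5465, induced with galactose for 36–48 hours and stained for 1 hour at 4 °C with 10% biotinylated, detergent-solubilized Sf9 membrane reagent. Cells were enriched on streptavidin microbeads and then FACS-sorted, with low and high (top ~1%) gates set on anti-HA fluorescence for expression and streptavidin fluorescence for reagent binding. Each polyreactivity label reflects the gate a clone came from. Genes were amplified by colony PCR, sequenced by MiSeq 2 × 250 and filtered by CDR length.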

Sequence	polyreactivity (PSR sort gate)
QDQLVESGGGLVQAGGSLRLSCAASGSTFGVNAMGWYRQAPGKERELVAIITSTTYSDSVKGRFTISRDNAKNTVYLQMNSLKPEDTAVYYSAADSLLVLFDYWGQGTQVTVSS	low polyreactivity
QDQLVESGGGLVQAGGSLRLSCAASGSTFKVYAMGWYRQAPGKERELVAAISASDCSTYYADSVKGRFTISRDNAKNTVYLQMNILKAEDTAVYYCNAAYPEWYAYDYWGQGTQVTVSS	low polyreactivity
QDQLVESGGGLVQAGGSLRLSCAASGSTFNNNALGWYRQAPGKERELVAAISYTGGSTYYADSVKGRFTISRDNAKNSVYLHMNSLKPEDTAVYYCARRQARKFYYWGQGTQVTVSS	high polyreactivity
QDQLVESGGGLVQAGGSLRLSCAASGSTFPDYAMGRYRQAPGKERELFAAISSGGSTNYADSVKGRFTISRDNAKNTVYLQMNSLKPEDTAVYYCAADVGAIYDKAVNGYWGQGTQVTVSS	low polyreactivity
QDQLVESGGGLVQAGGSLRLSCAASGSTFRHNAMGWYRQAPGKERELVATIRTSGGTTYYADSVKGRFTISRDNAKNTVYLHMNSLKPEDTAVYYCAAVSYLFLYQGYPIAYPMYYWGQGTQVTLSS	low polyreactivity
QDQLVESGGGLVQAGGSLRLSCAASGSTFRPYAMGWSRQAPGKERELVAAITTGGSTNYADSVKGRFTISRDNAKNTVYLQMNSLKPEDTAVYYCNADYDVLNWGYYDWGYDYWGHGTQVTVSS	low polyreactivity
QDQLVESGGGLVQAGGSLRLSCAASGSTFSYNMGWYRQAPGKERELVAAISGSGGSTYADSVKGRFTISRDNAKNTVYLQMNSLKPEDTAVYYCATVRYWVHEYGYWGQGTQVTVSS	high polyreactivity
QDQLVESGGGLVQAGGSLRLSCAASGSTFVSNAMVWYRQAPGKERELVAAISSSGGRTSYADSVKGRFTISRDNAKNTVYLQMNSLKPEDTAVYYCAARFKSVDYVQYYYWGQGTQVTVSS	low polyreactivity
QDQLVESGGGLVQAGGSLRLSCAASGSTIPISVRGWYRQAPGKERELVAAITYSGGSTYYADSVKGRFTISRDNAKNTVYLQMNSLKPEDTAVYYCAAGVYRWHYLYKYTQRRVEYWGQGTQVTVSS	high polyreactivity
QDQLVESGGGLVQAGGSLRLSCAASGSTLYAYAMGWYRQAPGKERELVAASRTGGSTYYADSLKGRFTISRDNAKNTVYLQMNSLKPEDTAVYYCAALYYHEYDYWGQGTQVTVSS	low polyreactivity
QDQLVESGGGLVQAGGSLRLSCAASGSTMRWYAMGWYRQAHGKERELVARISWTTGSTYYADSVKGRFTISRDNAKNTVYLQMNSLKPEDTAVYYCAVASGQSFYWGQGTQVTVSS	high polyreactivity
QDQLVESGGGLVQAGGSLRLSCAASGTFRRYAMGWYRKAPGKERELVAAISSGGGSTYYADSVKGRFTISRDNAKNTVYLQMNSLKPEDTAVYDCAAANSYTFRYGSWGQGTQVTVSS	high polyreactivity
QDQLVESGGGLVQAGGSLRLSCAASGTTFQYNAMGWYRQAPGKERELVAAISGSGGSTYYADSVKGRFTISRDNAKNTVYLEMNSLKPEDTAVYYCARVGYRHGYYNYCGQGTQVTVSS	high polyreactivity
QDQLVESGGGLVQAGGSLRLSCAASGTTFYRYAMGWYRQAPGKERELVAAISSSGGYTYYADSVKGRFTISRDIAKNTVYLQMNSLKPEDTAVYYCNAAYRVRRFDYWGQGTQVTVSS	low polyreactivity
QDQLVESGGGLVQAGGSLRLSCAASGYTFPSYAMGWYRQAPGKEREFVAAIDSSGGSTNYADSVKGRFTISRDNAKNTVYLQMNSLKPEETAVYYCAREYSSGYWVRHLFYYWGQGTKVTVSS	low polyreactivity
QDQLVESGGGLVQAGGSLRLSCAASRSIFPLYAMGWYRQATGKEREMVAAISYSGGRTYYADSVKGRFTISRDNAKNTVYLQMNSLKPEDTAVYYCNTRQRVIDDYWGQGTQVSVSS	high polyreactivity
QDQLVESGGGLVQAGGSLRLSCAPSGSTFGDYDMGGYRPAPGKERELVAAISNGGSTYYAASVKGRFTISRDNAKNTVYLQRNSLKPEDTADFYCNADNVEIRSTYEYGRYLYGYWGQGTQVTVSS	low polyreactivity
QDQLVESGGGLVQAGGSLRLSCAPSGYFDLNALGWYRQAPGKERELVAANTDGGSTNYADSVKGRFTISRDNAKNTFYLQMNSLKPEDTAVYYCAADRGHTILHGGYWGQGTQVTVSS	low polyreactivity
QDQLVESGGGLVQAGGSLRLSCASSGSTFPWYTMGWSRQAPGKERELVAAIDGSAGDTYYADSVKGRVTISRDNAKNTVYLQMNSLKPEDTAVYYCATRTWRWGYLHYDYWGQGTQVTVSS	low polyreactivity
QDQLVESGGGLVQAGGSLRLSCDASGSIFEQNAMGWYRPAPGKERELVAAISSGSTNYADSVKGRFTISRDNAKNTVYLQMNSLKPEDTAVYYCAKRWRRRFVDVWSLYDYWGQGTQVTVSS	low polyreactivity
QDQLVESGGGLVQAGGSLRLSCPASGHTFAKYAMGWYRQAPGKERELVAAISSGGDTYYADSVKGRFTISRDNAKNTVYLQMNSLIPEDTAVYYCAATSICGSWSFWSPGEYRHYDYWGQGTQVTVSS	low polyreactivity
QDQLVESGGGLVQAGGSLRLSCPASGRTFNYYAMGWYRQAPGKERELVAAISVSTTRTYYADSVKGRFTISRDNAKNTVYLQMNSLKPEDTAVYYCAAYRAGRFGYLGQGTQVTVSS	high polyreactivity

Sequence	polyreactivity (PSR sort gate)
QDQLVESGGGLVQAGGSLRLSCSASGSTFIRNSKGWYRQATGKERELVAAITTDGSTDYADSVKGRFTISRDNAKNTVYLQMNSLKPEDTAVYYCNAEYRLDALSYDYWGQGTQVTVSS	low polyreactivity
QDQLVESGGGLVQAGGSLRLSGDASGSTFSKYVMGWYRQAPGKERELVAAISGGDRTYYADSVKGRFTISRDNAKNTVYLQMNSLKPEDTAVYFCAAEVLKTRWSYDYWGQGTQVTVSS	high polyreactivity
QDQLVESGGGLVQAGGSLRLSRAASGLIFYSYAMGWYRQAPGKERELVAAISSGGGRTYYADSVKGRFTISRDNAKNTVDLQMNSLKPEDTAVYYCAAYGSAAQKYPYDRPYRYGYWGQGTQVTVSS	high polyreactivity
QDQLVESGGGLVQAGGSLRLSSAASGRIFKRYAMGWYIQAPGKERELVAAITYNSGSTYYADSVKGRFTISRDNAKNTVYLQMNSLKPEDTAVFYCAAEKWSDQSPRGDYWGQGTQVTVSS	low polyreactivity
QDQLVESGGGLVQAGGSLRLTCAASGITFYRYAMGWYRQAPGKERELVAAITSGGRTNYADSVKGRFTISRDNAKNTVYLQMNSMKPEDTAVYYCGARLVRESEPLGYWGQGTQVTVSS	high polyreactivity
QDQLVESGGGLVQAGGSLRLTCAASGSIFTAYTMGWYRQAPVKERELVAAITERGGSTYYADSVKGRFTISRDNAKNTFYLQMNRMKPEDTAVYYCAASTLKDIYLWFRVDYWGQGTQVTLSS	low polyreactivity
QDQLVESGGGLVQAGGSLRLTSAASGRIFTIYAMGWYRQPPGKDRELVAAISDRGTRTYYADSVKGRFTISRDIAKNTVYLQMNSLKPEDTAVNYCSTDALYTYGYDYWGQGTQVTVSS	low polyreactivity
QDQLVESGGGLVQAGGSLSLSCAASGRTFYDYAMGWYRQAPGKERELVAAISRSGGRTYYADSVKGRFTISRDNAKNTVYLQMNSLKPEDTAVYYCNAVRYVLGYSYDYNYWGQGTQVTVSS	high polyreactivity
QDQLVESGGGLVQAGGTLRLSCAATGSTFTNYAMGWYRQAPGKERELVAALTSVGSTYYADSVKGRFTISRDNAKNTVYLQTNSLKAEDTAVYYCNVVYRDQYNYWGQGTQVTVSS	low polyreactivity
QDQLVESGGGLVQAGGTLSLSSAASVIIFYDNAMGWSRQAPGKEREYVAAISRSGTTTYYADSVKGRFTISRDNAKNTVYLQMNSLKPEDTAVYYCAARWVYYHAIFEYWGQGTQVTVSS	high polyreactivity
QDQLVESGGGLVQAGVSLRISCAASGYIFGFYARGWYRQAPGIERELVAAISKSGGNTYYADSVKGRFTISRDNANNTVSLQMNSLKPEDTAVYYCAADSYRYKYNYWGQGTQVTGSS	high polyreactivity
QDQLVESGGGLVQARGSLRLSCAASGSIYSRNALGWYRQAPGKERELVAAITYRGGNTYYADSVKGRFTISRDNANNNLYLQMNSLKPEDTAVYYCAADTYGWLYAFEYWGQGTQVTVSS	low polyreactivity
QDQLVESGGGLVQEGGSLRLSCAASGRIFYFNARGWYRQAPGKERELVADISSGGRTNYADSVKGRFTFSRDNAKNSVYVQMNSEKPEDTAVYYCNSEPYTSSGGYRGYDFDYWGQGSQVTVSS	low polyreactivity
QDQLVESGGGLVQEGGSLRLSCAASGRTFKHYVMGWYRQAPGKERELVATICGGGGTYYADSVKGRFTISRDNAKNSVYLQMISLKPEDTAVYYCAARYPRGSRTWSFDSNKQRDYWGQGTQVTVSS	low polyreactivity
QDQLVESGGGLVQGGGSLRLSCAASGRIFSPYAMGWYRQAPGKEREVVAAITSASSTYYADSVKGRFTISRDNAKNTVYLQMNSLKPEDTAVNYCAASYWRYGSAFDYWGHGTQVTVSS	high polyreactivity
QDQLVESGGGLVQSGGSLRLSCAASGSTFYYYAMGWYRQAPGKERELVAAITSSTGRTYYADSVKGRFTISRDNAKYTVYLQMNSLKPEDTAVYYCITRRGSLSGLYVYSIQGYDYWGQGTQVTVSS	low polyreactivity
QDQLVESGGGTVQAGGSLRISCAASGSILRSNAMGWYRQAPAKERELVAAITQSGGSTFYADSVKGRFTITRDNAKNTVYLQMNSLKPEDTAVYYWGQGTQVTVSS	low polyreactivity
QDQLVESGGGVVQAGGSLRLSCAASGRISIWYAMGWYRQAPGKERELVARISTSSGRTYYADSVKGRFTISRDNAKNTVYLQMNSLKPEDTAVYYCNAAGYRIYFSTRYDYWGQGTQVTVSS	high polyreactivity
QDQLVESGGVLVQAGGSLRLSCAASGRIFVYNAMGWYRQAPGKERELVATIDYSGGSTYYADSVKGRFTNSRDYAKNTVYLQINSLKPEDPAVYYCNADWSVYAYDSWGQGTQVTVSS	low polyreactivity
QDQLVESGPGLVQAGGSLRLSCAPSGRIFTVYAMGWYRQAPGKERELVAAIDWSDGSTYYADSVKGRFTISRDNAKNTVYLHMNSLKPEATAVYYCAAETYWVVEYDYWGQGTQVTVSS	high polyreactivity
QDQLVESGRGLVQAGGSLRLSCAASASIFTKYTMVWYRQAPGKERELVAAITLRGTSTYYADSVKGRFTISRDNAKKTVYLQKNSLKPEDTAVYYCNILYSWVVAYDYWGQGTQVTLSS	high polyreactivity
